Results as given in PMC3504746.

Biological target: skeletal muscle ryanodine receptor (RyR1) purified from sheep skeletal muscle, homotetramer (sheep (endogenous in skeletal muscle))
Assay: negative-stain TEM

skeletal muscle ryanodine receptor (RyR1) purified from sheep skeletal muscle, homotetramer
stoichiometry N: 4
